Consider one molecule from PMC3223204, “Implantation Serine Proteinase 1 Exhibits Mixed Substrate Specificity that Silences Signaling via Proteinase-Activated Receptors” (PLoS ONE, 2011).

One assay has as its target T1, rat PAR4 (Rattus norvegicus, UniProt Q920E0).
T1 construct: rat platelets that express only functional PAR4 but neither PAR1 nor PAR2; endogenous in cells; host or cells: rat platelets from platelet-rich plasma
T1 sequence (Q920E0 17-395): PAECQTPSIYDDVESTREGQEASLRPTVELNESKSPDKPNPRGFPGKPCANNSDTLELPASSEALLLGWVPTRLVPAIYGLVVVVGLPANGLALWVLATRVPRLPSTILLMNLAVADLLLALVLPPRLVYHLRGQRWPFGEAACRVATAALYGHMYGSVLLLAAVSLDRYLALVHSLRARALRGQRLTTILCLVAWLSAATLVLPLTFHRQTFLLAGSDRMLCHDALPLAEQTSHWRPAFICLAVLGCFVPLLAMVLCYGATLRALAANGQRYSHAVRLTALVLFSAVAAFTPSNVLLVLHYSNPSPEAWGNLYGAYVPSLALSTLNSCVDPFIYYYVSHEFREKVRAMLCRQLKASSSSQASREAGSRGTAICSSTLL
Kind of assay: Calcium signaling assay, PAR4 activation/disarming in rat platelets. In kind it is cell-based. As to the method:
(§1) Cell lines (grown to about 85% confluence and disaggregated with calcium-free isotonic phosphate-buffered saline containing 0.2 mM EDTA) and rat platelets (harvested from platelet-rich anti-coagulated plasma) were prepared and used as previously described. Cells were incubated for 25 min at room temperature with Fluo-3 acetoxymethyl ester (final concentration, 22 µM) along with 0.4 mM sulfinpyrazone. Cells were washed twice by centrifugation (using the following buffer without calcium) and resuspended in the calcium signaling buffer: 150 mM NaCl, 3 mM KCl, 1.5 mM CaCl2, 20 mM HEPES, 10 mM dextrose, and 0.25 mM sulfinpyrazone, pH 7.4.
(§2) Fluorescence was measured at 24 °C with an excitation wavelength of 480 nm and an emission recorded at 530 nm using an Aminco Bowman Series 2 Luminescence spectrometer (ThermoSpectronic Model FA354, Spectronic Unicam, Rochester, NY). The fluorescence signals caused by the addition of test agonists (trypsin, PAR-activating peptide or rISP1, added to 2 ml of a cell suspension of ~3 x 10^5 cells/ml) were compared with the fluorescence peak height yielded by replicate cell suspensions treated with 2 µM ionophore A23187. This concentration of A23187 was at the plateau of its concentration-response curve for a fluorescence response in Fluo-3-loaded cultured cells. Under these conditions, the calculated values for intracellular calcium in the HEK and KNRK cells were [picture] 30 nM under basal conditions and about 340 nM upon exposure to A23187 [8, 9].
Previous work has shown that the fluorescence response of a cell preparation, as a percentage relative to the signal generated by 2 µM A23187, is a valid reference standard for the comparative determination of calcium signals for all PAR agonists. The cellular calcium response was therefore recorded as a percentage of the response generated by 2 µM ionophore A23187 [6]. Concentration-effect curves for recombinant enzyme (rISP1) were obtained by measuring the calcium signals generated by measuring the effects (receptor activation or disarming) of increasing enzyme concentrations in replicate cell suspensions (2 ml).
Receptor activation was monitored as an enzyme-stimulated increase in fluorescence emission (E530). As outlined in the following paragraph, receptor disarming or disabling was ascertained by the ability of ISP1 pre-treatment of the cells to abrogate the calcium signal caused by the subsequent addition of either a PAR-activating enzyme (thrombin for PARs 1 & 4; trypsin for PAR2) or a PAR-activating peptide (a reduced response to the activating peptide reflects receptor disabling). […]

Another assay deals with T2, human PAR1 (Homo sapiens, UniProt P25116).
T2 construct: The human HEK293 cells, that constitutively express both PAR1 and PAR2; endogenous in cells; host or cells: HEK293 (expressing SV40 T-antigen)
T2 sequence (P25116 22-425): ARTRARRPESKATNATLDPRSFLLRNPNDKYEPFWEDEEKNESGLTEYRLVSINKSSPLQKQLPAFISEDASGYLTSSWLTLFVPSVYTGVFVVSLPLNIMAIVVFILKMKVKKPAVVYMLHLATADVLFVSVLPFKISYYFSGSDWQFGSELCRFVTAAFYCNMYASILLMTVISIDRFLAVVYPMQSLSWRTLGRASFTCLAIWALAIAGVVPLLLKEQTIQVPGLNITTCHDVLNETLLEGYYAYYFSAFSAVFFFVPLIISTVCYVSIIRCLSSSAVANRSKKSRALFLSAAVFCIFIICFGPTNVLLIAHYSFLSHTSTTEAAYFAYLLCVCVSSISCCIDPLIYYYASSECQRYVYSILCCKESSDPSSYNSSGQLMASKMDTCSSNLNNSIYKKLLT
The assay can be described thus: Calcium signaling assay, PAR1 activation/disarming in HEK cells. In kind it is cell-based.
From the text: The Kirsten virus-transformed normal rat kidney (KNRK) epithelial cell line expressing wild-type rat PAR2 (KNRKrPAR2), validated previously for studies of receptor activation was used to evaluate the PAR2-regulating properties of the ISP1 by the methods described previously. Human embryonic kidney cells (HEK293) that express the SV40 T-antigen were kindly provided by Dr. Jonathan Lytton, University of Calgary, Faculty of Medicine, Calgary (Alberta) Canada. The human HEK293 cells, that constitutively express both PAR1 and PAR2, were grown under similar conditions as described for the KNRK cells, but in the absence of geneticin, as outlined for the PAR-mediated calcium signaling procedure described previously. All cells were sub-cultured by dissociation in an isotonic EDTA/saline solution, pH 7.4, without the use of trypsin, to avoid cleavage of PARs.
as §1
as §2, with “30 nM under basal conditions and about 340 nM upon exposure to A23187 [8, 9].” left out
Previous work has shown that the fluorescence response of a cell preparation, as a percentage relative to the signal generated by 2 µM A23187, is a valid reference standard for the comparative determination of calcium signals for all PAR agonists. The cellular calcium response was therefore recorded as a percentage of the response generated by 2 µM ionophore A23187 [6]. […]
Receptor activation was monitored as an enzyme-stimulated increase in fluorescence emission (E530). […]

The mark [1] stands for this setting: pre-treatment with 5 Units/ml ISP1, then thrombin (0.5 units/ml).
Setting [2] is: pre-treatment with 20 units ISP1/ml, then thrombin (0.5 units/ml).

B1: ISP1: recombinant implantation serine proteinase 1 expressed in Pichia pastoris, also known as Mouse Prss28 (protein, UniProt Q924N9 27-274, looked up)
Serine protease 28: KPVGIVGGQRTPPGKWPWQVSLRMYSYEVNSWVHICGGSIIHPQWILTAAHCIQSQDADPAVYRVQVGEVYLYKEQELLNISRIIIHPDYNDVSKRFDLALMQLTALLVTSTNVSPVSLPKDSSTFDSTDQCWLVGWGNLLQRVPLQPPYQLHEVKIPIQDNKSCKRAYRKKSSDEHKAVAIFDDMLCAGTSGRGPCFGDSGGPLVCWKSNKWIQVGVVSKGIDCSNNLPSIFSRVQSSLAWIHQHIQ
modifications: recombinant, Pichia pastoris-expressed
notes: recombinant implantation serine proteinase 1 expressed in Pichia pastoris, also known as Mouse Prss28
Consider B1, for which, in the assay with rat PAR4 (AYPGKF-NH2 (100 µM), concentration-dependent), the “Cellular response to PAR4-activating peptide after ISP1 pre-treatment” value is listed as “diminished”. The “Activation of a calcium signal via PAR4” value with rat PAR4 (enzyme alone) is given as “did not activate a calcium signal”. The “residual PAR4 activity triggered by thrombin” value with rat PAR4 (setting [1]) is on record as approximately 75%. Besides, in the assay with rat PAR4 (setting [2]), the “residual PAR4 activity (% of control)” value is recorded as approximately 20%. Also, the “Cellular response to PAR1-activating peptide after ISP1 pre-treatment” value in the assay with human PAR1 (TFLLR-NH2 (5 µM), concentration-dependent) is given as “diminished”. Besides, in the assay with human PAR1 (enzyme alone), the “Activation of a calcium signal via PAR1” value was “did not activate a calcium signal”. The “residual PAR1 activity” value was 20% in the assay with human PAR1 (setting [1]) and “eliminate PAR1 activity completely” with human PAR1 (setting [2]).
